Molecular target: the molecule itself
Assay: crystal structure

B1: El Tor cholera toxin B-pentamer (natural protein)
chain: TPQNITDLCAEYHNTQIYTLNDKIFSYTESLAGKREMAIITFKNGAIFQVEVPGSQHIDSQKKAIERMKDTLRIAYLTEAKVEKLCVWNNKTPHAIAAISMAN
For B1, the “stoichiometry N” value was 5.
